Data set [1] addresses T1, Af-PARP1 S241Q (Aspergillus fumigatus, UniProt B0Y3N8 1-23+35-688, S252Q;internal_change). Kind of data set: EMSA; EMSA: 50 mM HEPES pH 8, 100 mM NaCl, 10% glycerol, 10 mM DTT, 45 min at 4 °C, 7% native PAGE 0.5x TBE; plasmid EMSA: 20 mM Tris-HCl pH 8, 30 mM NaCl, 1 mM EDTA, 1 mM DTT; CD: 20 mM HEPES pH 8, 100 mM NaCl, 0.5 mM TCEP, 2% glycerol. The note with it: protein: recombinant; tags: His; described as blunt duplex; printed strands not exactly complementary. (In general: Mobility shift assays separate free from complexed probe on a gel.)

Data set [2] concerns the target T1, Af-PARP1 S241Q. Put plainly: EMSA; mutation did not restore binding; EMSA: 50 mM HEPES pH 8, 100 mM NaCl, 10% glycerol, 10 mM DTT, 45 min at 4 °C, 7% native PAGE 0.5x TBE; plasmid EMSA: 20 mM Tris-HCl pH 8, 30 mM NaCl, 1 mM EDTA, 1 mM DTT; CD: 20 mM HEPES pH 8, 100 mM NaCl, 0.5 mM TCEP, 2% glycerol. The note with it: protein: recombinant; tags: His; hairpin, blunt end.

In another data set the target is Af-PARP1 K52/60A (Aspergillus fumigatus, UniProt B0Y3N8 1-23+35-688, K63A;K71A;internal_change). Put plainly: EMSA; EMSA: 50 mM HEPES pH 8, 100 mM NaCl, 10% glycerol, 10 mM DTT, 45 min at 4 °C, 7% native PAGE 0.5x TBE; plasmid EMSA: 20 mM Tris-HCl pH 8, 30 mM NaCl, 1 mM EDTA, 1 mM DTT; CD: 20 mM HEPES pH 8, 100 mM NaCl, 0.5 mM TCEP, 2% glycerol. The note with it: protein: recombinant; tags: His; dumbbell of two hairpins, nick.

The target in another data set is Af-PARP1 K56A (Aspergillus fumigatus, UniProt B0Y3N8 1-23+35-688, K67A;internal_change). The data set is described as above. The note with it: protein: recombinant; tags: His; dumbbell of two hairpins, nick.
In a further data set the target is Af-PARP1 Q22A (Aspergillus fumigatus, UniProt B0Y3N8 1-23+35-688, Q22A;internal_change). Described as above. The note with it: protein: recombinant; tags: His; dumbbell of two hairpins, nick.
The next data set deals with Af-PARP1 E53A (Aspergillus fumigatus, UniProt B0Y3N8 1-23+35-688, E64A;internal_change). Described as above. The note with it: protein: recombinant; tags: His; dumbbell of two hairpins, nick.
The target of the next data set is Af-PARP1 K60A (Aspergillus fumigatus, UniProt B0Y3N8 1-23+35-688, K71A;internal_change). The data set is described as above. The note with it: protein: recombinant; tags: His; dumbbell of two hairpins, nick.
For the next data set, the target named is Af-PARP1 K52A (Aspergillus fumigatus, UniProt B0Y3N8 1-23+35-688, K63A;internal_change). The description is as above. The note with it: protein: recombinant; tags: His; dumbbell of two hairpins, nick.
For another data set, the target named is Af-PARP1 S14A (Aspergillus fumigatus, UniProt B0Y3N8 1-23+35-688, S14A;internal_change). The description is as above. The note with it: protein: recombinant; tags: His; dumbbell of two hairpins, nick.

B1: DNA-16/17 (5'P duplex) (dsDNA)
DNA 1: GACGACCCGGACACA
DNA 2: TGTGCTCCGGGTCGTC
modifications: 5'-phosphate on DNA-16
On to B1, for which, in the data set with Af-PARP1 S241Q [1], the binding result is “binds”.

As to GGAAGTTCTTTTGAACTTCC (structured_DNA, 5'-phosphate) [DNA-5 (5'P blunt)], the binding result in the data set with Af-PARP1 S241Q [2] is given as “no binding”.

On to CGGTCGATCGTAAGATCGACCGGCGCTGGAGCTTGCTCCAGCGC (structured_DNA, 5'-phosphate) [DNA-1 (5'P nick)], for which the binding result with Af-PARP1 K52/60A, in the data set with Af-PARP1 K56A, with Af-PARP1 Q22A, with Af-PARP1 E53A, in the data set with Af-PARP1 K60A and in the data set with Af-PARP1 K52A was “binds” each time. Besides, in the data set with Af-PARP1 S14A, the binding result is “binds”.

(Values after publication PMC13507078, “The BRCT domain enhances DNA binding and catalytic efficiency of fungal PARPs”.)
